Assays:
Experiment in all cases: IEDB peptide-MHC binding, purified MHC/competitive/radioactivity; filed as Kd, often an IC50 or EC50 that approximates it; ≥ and ≤ were set here for values at or beyond the usual limits of such assays
HLA-B*44:03 = molecular target: HLA-B*44:03
HLA-B*45:01 = molecular target: HLA-B*45:01
HLA-B*40:01 = molecular target: HLA-B*40:01
HLA-B*44:02 = molecular target: HLA-B*44:02
HLA-B*40:02 = molecular target: HLA-B*40:02
HLA-B*18:01 = molecular target: HLA-B*18:01
HLA-A*68:02 = molecular target: HLA-A*68:02
HLA-A*02:06 = molecular target: HLA-A*02:06
HLA-A*02:02 = molecular target: HLA-A*02:02
HLA-A*02:03 = molecular target: HLA-A*02:03
HLA-A*02:01 = molecular target: HLA-A*02:01
HLA-A*30:01 = conditions: source organism: Dengue virus 3 Martinique/1243/1999
[1] = source organism: Lymphocytic choriomeningitis virus (strain WE)
[2] = source organism: Hepacivirus hominis
[3] = source organism: SARS coronavirus Tor2
[4] = source organism: Trypanosoma cruzi
[5] = source organism: Dengue virus 4 Philippines/H241/1956
[6] = source organism: Dengue virus 1 Singapore/S275/1990
[7] = source organism: Mammarenavirus guanaritoense
[8] = source organism: Mammarenavirus mopeiaense
[9] = source organism: Lymphocytic choriomeningitis virus (strain Armstrong)
[10] = source organism: Mammarenavirus choriomeningitidis
[11] = source organism: Lassa virus Josiah
[12] = source organism: Mammarenavirus brazilense

## KEPVESCPL
HLA-B*44:03; [1]
  Kd: ≥ 78100 nM
HLA-B*45:01; [1]
  Kd: ≥ 58400 nM
HLA-B*40:01; [1]
  Kd: 1920 nM
HLA-B*44:02; [1]
  Kd: ≥ 77900 nM
HLA-B*40:02; [1]
  Kd: 155 nM
HLA-B*18:01; [1]
  Kd: ≥ 77500 nM

## KLKNKHEAMI
HLA-A*68:02; source organism: Homo sapiens
  Kd: 10300 nM
HLA-A*02:06; source organism: Homo sapiens
  Kd: ≥ 50300 nM

## KLRGMGFNAV
HLA-A*68:02; [2]
  Kd: ≥ 40600 nM
HLA-A*02:02; [2]
  Kd: 161 nM
HLA-A*02:06; [2]
  Kd: 496 nM
HLA-A*02:03; [2]
  Kd: 2.05 nM
HLA-A*02:01; [2]
  Kd: 454 nM

## LEDFKPRSQM
HLA-B*44:03; [3]
  Kd: 1010 nM
HLA-B*45:01; [3]
  Kd: 17700 nM
HLA-B*40:01; [3]
  Kd: 1520 nM
HLA-B*44:02; [3]
  Kd: 622 nM
HLA-B*40:02; [3]
  Kd: 21.7 nM
HLA-B*18:01; [3]
  Kd: ≥ 37800 nM

## LLGLWGLAAL
HLA-A*68:02; [4]
  Kd: 5820 nM
HLA-A*02:02; [4]
  Kd: 4 nM
HLA-A*02:06; [4]
  Kd: 144 nM
HLA-A*02:03; [4]
  Kd: 9.38 nM
HLA-A*02:01; [4]
  Kd: 50.7 nM

## LSMGLIAIAV
HLA-A*68:02; [5]
  Kd: 588 nM
HLA-A*02:06; [5]
  Kd: 5.23 nM

## MAIGIVSIL
HLA-A*68:02; source organism: Dengue virus 1 Brazil/97-11/1997
  Kd: 2.39 nM

## MAVGIVSILL
HLA-A*68:02; [6]
  Kd: 5.58 nM

## MTGPLVAGGL
HLA-A*68:02; source organism: Dengue virus 2 Jamaica/1409/1983
  Kd: 21.6 nM

## MVHQIFGSA
HLA-A*68:02; source organism: Dengue virus 3 Martinique/1243/1999
  Kd: 16.7 nM
HLA-A*30:01
  Kd: 29.6 nM

## NEYRQYLDAY
HLA-B*44:03; [3]
  Kd: 83.2 nM
HLA-B*45:01; [3]
  Kd: 4930 nM
HLA-B*40:01; [3]
  Kd: ≥ 21900 nM
HLA-B*44:02; [3]
  Kd: 1990 nM
HLA-B*40:02; [3]
  Kd: 632 nM
HLA-B*18:01; [3]
  Kd: 253 nM

## PDFELLLSL
HLA-B*44:03; [7]
  Kd: ≥ 35800 nM
HLA-B*45:01; [7]
  Kd: ≥ 38100 nM
HLA-B*40:01; [7]
  Kd: 14600 nM
HLA-B*44:02; [7]
  Kd: 7830 nM
HLA-B*40:02; [7]
  Kd: 2.18 nM
HLA-B*18:01; [7]
  Kd: 701 nM

## PELLNNQFGT
HLA-B*44:03; [8]
  Kd: ≥ 69700 nM
HLA-B*45:01; [8]
  Kd: ≥ 70000 nM
HLA-B*40:01; [8]
  Kd: ≥ 69500 nM
HLA-B*44:02; [8]
  Kd: ≥ 70200 nM
HLA-B*40:02; [8]
  Kd: ≥ 27200 nM
HLA-B*18:01; [8]
  Kd: 16200 nM

## REFVATTRTL
HLA-B*44:03; [9]
  Kd: 7560 nM
HLA-B*45:01; [9]
  Kd: ≥ 30500 nM
HLA-B*40:01; [9]
  Kd: 8640 nM
HLA-B*44:02; [9]
  Kd: 3180 nM
HLA-B*40:02; [9]
  Kd: 69.9 nM
HLA-B*18:01; [9]
  Kd: 14100 nM

## REGLLNYSM
HLA-B*44:03; [10]
  Kd: 1220 nM
HLA-B*45:01; [10]
  Kd: 2460 nM
HLA-B*40:01; [10]
  Kd: 1190 nM
HLA-B*44:02; [10]
  Kd: 1180 nM
HLA-B*40:02; [10]
  Kd: 17.7 nM
HLA-B*18:01; [10]
  Kd: 148 nM

## RERVNINIVG
HLA-B*44:03; [3]
  Kd: 6740 nM
HLA-B*45:01; [3]
  Kd: 1630 nM
HLA-B*40:01; [3]
  Kd: 4910 nM
HLA-B*44:02; [3]
  Kd: 7900 nM
HLA-B*40:02; [3]
  Kd: 143 nM
HLA-B*18:01; [3]
  Kd: ≥ 70500 nM

## REVKTIKVF
HLA-B*44:03; [3]
  Kd: 87.8 nM
HLA-B*45:01; [3]
  Kd: 6750 nM
HLA-B*40:01; [3]
  Kd: 219 nM
HLA-B*44:02; [3]
  Kd: 103 nM
HLA-B*40:02; [3]
  Kd: 54.3 nM
HLA-B*18:01; [3]
  Kd: 4000 nM

## RLLGTFTWTL
HLA-A*68:02; [11]
  Kd: ≥ 5000 nM
HLA-A*02:02; [11]
  Kd: 117 nM
HLA-A*02:06; [11]
  Kd: 7.55 nM
HLA-A*02:03; [11]
  Kd: 106 nM

## SDHLLSEML
HLA-B*44:03; [12]
  Kd: ≥ 78100 nM
HLA-B*45:01; [12]
  Kd: ≥ 77700 nM
HLA-B*40:01; [12]
  Kd: 5290 nM
HLA-B*44:02; [12]
  Kd: ≥ 26900 nM
HLA-B*40:02; [12]
  Kd: 2260 nM
HLA-B*18:01; [12]
  Kd: ≥ 77500 nM

## SDYDYYRYNL
HLA-B*44:03; [3]
  Kd: 9730 nM
HLA-B*45:01; [3]
  Kd: ≥ 25000 nM
HLA-B*40:01; [3]
  Kd: ≥ 69600 nM
HLA-B*44:02; [3]
  Kd: 12400 nM
HLA-B*40:02; [3]
  Kd: ≥ 51600 nM
HLA-B*18:01; [3]
  Kd: ≥ 70500 nM

## SSVLLWMASV
HLA-A*68:02; [6]
  Kd: 45.2 nM

## TLENERGEL
HLA-A*68:02; source organism: Homo sapiens
  Kd: ≥ 21500 nM
HLA-A*02:06; source organism: Homo sapiens
  Kd: ≥ 45600 nM
HLA-A*02:01; source organism: Homo sapiens
  Kd: ≥ 28600 nM
